Article PMC9953004, “Scandium-44 Radiolabeled Peptide and Peptidomimetic Conjugates Targeting Neuropilin-1 Co-Receptor as Potential Tools for Cancer Diagnosis and Anti-Angiogenic Therapy” (Biomedicines, 2023)
Read-outs that look alike come from different tables or passages of the source. Where a SMILES comes first, the peptide text is derived from it. [ ]: non-standard residue; d: D form. The star is where a group is joined. DOTA = O=C(O)CN1CCN(CC(=O)O)CCN(CC(=O)*)CCN(CC(=O)O)CC1

Key:
physchem = type: physicochemical; details: pH 7.4
Procedure: The lipophilicity value, defined as the decimal logarithm (logP) of the partition coefficient (P), was tested in the system of two immiscible (but saturated with each other) phases: 0.1 M PBS solution, pH 7.4, and n-octanol, in three independent experiments. Partition coefficient was determined as a ratio of radioactivity of the organic (n-octanol) and aqueous (PBS solution) phases and was shown as the mean ± SD. The lipophilicity test was carried out as follows: the tested radiocompound dissolved in 10–20 µL of PBS was incubated and intensively mixed in an equal amount of these two phases. After centrifugation, radioactivity of appropriate amounts of the separated organic (500 µL) and aqueous (100 µL) phases were measured on the Wizard gamma counter. Differences in the volume of phases taken for measurement resulted from the very low radioactivity of organic phases and were included in the calculations. Additionally, to confirm the stability of the studied radiocompounds during the experiment, the RP-HPLC analyses of the aqueous phase were performed after each lipophilicity test.

[1] = type: in vitro ADME, human
Procedure: (§1) Radioconjugate stability tests in 0.1 M PBS solution, 1 mM cysteine (Cys) solution, 1 mM histidine (His) solution and human serum (HS) were performed under rigorous conditions according to the procedure described in detail in our previous paper. In brief, isolated radioconjugates were dissolved in 50 µL PBS and appropriate volume of Cys, His and HS solution and then incubated at 37 °C. After the specified incubation time (depending on the half-life of a given radionuclide), which was up to 4–8 h for the ^44Sc-radiocompounds, 4 h for the ^68Ga-radiocompounds and about 6–14 days for the ^177Lu-radiocompounds, aliquots of solution were withdrawn from the mixture and the composition of the solution was analyzed on RP-HPLC in System 3 or 4 with gamma detection. The concentrations of Cys and His solutions were about 1000 times higher than that of the studied radiocompound. In the case of the radioconjugate stability study in HS, the concentration of the radiocompound was a maximum of 2–25 nmol/mL in 100% human serum. After incubation, the protein components were precipitated with a 2.5-fold volume excess of ethanol prior to RP-HPLC analysis, and then both the supernatant and precipitate radioactivity were measured with a Wizard gamma counter. The percentage of radioactivity remaining in the supernatant and bound by the precipitated serum protein components was calculated as the ratio of the radioactivity of the supernatant or the precipitate, respectively, to the sum of the radioactivity of the supernatant and the precipitate.

[2] = type: physicochemical; details: pH 7.4
Procedure: as §1

[3] = pH 7.4; cited from earlier work

Row | Molecule | logP ± SD (physchem) | stability in human serum [1] | stability in PBS buffer [2] | logP ± SD [3]
1 | CC(C)C[C@H](NC(=O)[C@H](Cc1c[nH]c2ccccc12)NC(=O)[C@@H](NC(=O)[C@H](C)NC(=O)[C@@H](N)CCCCNC(=O)CN1CCN(CC(=O)O)CCN(CC(=O)O)CCN(CC(=O)O)CC1)[C@@H](C)O)C(=O)N1CCC[C@H]1C(=O)N1CCC[C@H]1C(=O)N[C@@H](CCCNC(=N)N)C(=O)O [^68Ga-1bis, [^68Ga]Lys(DOTA-Ga)-A7R, metal not drawn] (H-K(DOTA)ATWLPPR-OH) | −4.18 ± 0.07 | insufficient stability | complete stability | –
2 | CC(C)C[C@@H](NC(=O)[C@H]1CCCN1C(=O)[C@H]1CCCN1C(=O)[C@H](N)CCCNC(=N)N)C(=O)N[C@H](Cc1c[nH]c2ccccc12)C(=O)N[C@@H](C(=O)N[C@H](C)C(=O)N[C@H](CCCCNC(=O)CN1CCN(CC(=O)O)CCN(CC(=O)O)CCN(CC(=O)O)CC1)C(=O)O)[C@H](C)O [^68Ga-3, [^68Ga]^DR7A-^DLys(DOTA-Ga), metal not drawn] (H-[dR][dP][dP][dL][dW][dT][dA][dK](DOTA)-OH) | −4.11 ± 0.06 | insufficient stability | complete stability | –
3 | CC(C)C[C@H](NC(=O)[C@H](Cc1c[nH]c2ccccc12)NC(=O)[C@@H](NC(=O)[C@H](C)NC(=O)[C@@H](N)CCCCNC(=O)CN1CCN(CC(=O)O)CCN(CC(=O)O)CCN(CC(=O)O)CC1)[C@@H](C)O)C(=O)N1CCC[C@H]1C(=O)N1CCC[C@H]1C(=O)N[C@@H](CCCNC(=N)N)C(=O)O [^177Lu-1bis, [^177Lu]Lys(DOTA-Lu)-A7R, metal not drawn] (H-K(DOTA)ATWLPPR-OH) | −4.45 ± 0.03 | insufficient stability | complete stability | –
4 | CC(C)C[C@@H](NC(=O)[C@H]1CCCN1C(=O)[C@H]1CCCN1C(=O)[C@H](N)CCCNC(=N)N)C(=O)N[C@H](Cc1c[nH]c2ccccc12)C(=O)N[C@@H](C(=O)N[C@H](C)C(=O)N[C@H](CCCCNC(=O)CN1CCN(CC(=O)O)CCN(CC(=O)O)CCN(CC(=O)O)CC1)C(=O)O)[C@H](C)O [^177Lu-3, [^177Lu]^DR7A-^DLys(DOTA-Lu), metal not drawn] (H-[dR][dP][dP][dL][dW][dT][dA][dK](DOTA)-OH) | −4.48 ± 0.05 | insufficient stability | complete stability | –
5 | [^68Ga]Ga-DOTA-Ahx-A7R [^68Ga-1] | – | – | – | −3.92 ± 0.03
6 | [^68Ga]Lys(hArg)-Dab(Ahx-DOTA-Ga)-Pro-Arg [^68Ga-2] | – | – | – | −4.57 ± 0.05
7 | [^177Lu]Lu-DOTA-Ahx-A7R [^177Lu-1] | – | – | – | −3.40 ± 0.14
8 | [^177Lu]Lys(hArg)-Dab(Ahx-DOTA-Lu)-Pro-Arg [^177Lu-2] | – | – | – | −3.75 ± 0.08
